In assay [1] the target is T1, mouse GalR2 (Mus musculus, UniProt O88854).
T1 sequence (O88854 1-371): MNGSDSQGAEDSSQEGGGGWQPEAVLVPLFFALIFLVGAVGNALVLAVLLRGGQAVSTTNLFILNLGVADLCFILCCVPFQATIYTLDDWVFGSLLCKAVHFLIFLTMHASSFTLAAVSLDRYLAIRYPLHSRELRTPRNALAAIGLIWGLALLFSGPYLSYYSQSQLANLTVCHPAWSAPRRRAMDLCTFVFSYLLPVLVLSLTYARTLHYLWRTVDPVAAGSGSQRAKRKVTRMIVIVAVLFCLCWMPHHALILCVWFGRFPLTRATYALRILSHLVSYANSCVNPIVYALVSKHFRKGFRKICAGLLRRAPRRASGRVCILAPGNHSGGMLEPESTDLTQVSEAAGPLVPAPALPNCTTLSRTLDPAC
The assay is described as follows: Calcium assay at orthologue receptor. The assay is classed as cell-based. The text has this:
(§1) These species were chosen as they represent potential downstream in vivo models to be used. Within native galanin amino acid residues 1-15 are conserved across species, we would therefore expect the Gal FC fusions comprising amino acids 2 to 13 to retain GalR2 activity in these species. Calcium imaging was used to define receptor activity.

For assay [2], the target named is cynomolgus GalR2. The assay is described as follows: Calcium assay at orthologue receptor. Conditions: Table 8; Calcium assays; mean +/− standard deviation. The assay is classed as cell-based, Macaca fascicularis.
Text: as §1

Assay [3] addresses T2, GalR1 (Homo sapiens, UniProt P47211).
T2 sequence (P47211 1-349): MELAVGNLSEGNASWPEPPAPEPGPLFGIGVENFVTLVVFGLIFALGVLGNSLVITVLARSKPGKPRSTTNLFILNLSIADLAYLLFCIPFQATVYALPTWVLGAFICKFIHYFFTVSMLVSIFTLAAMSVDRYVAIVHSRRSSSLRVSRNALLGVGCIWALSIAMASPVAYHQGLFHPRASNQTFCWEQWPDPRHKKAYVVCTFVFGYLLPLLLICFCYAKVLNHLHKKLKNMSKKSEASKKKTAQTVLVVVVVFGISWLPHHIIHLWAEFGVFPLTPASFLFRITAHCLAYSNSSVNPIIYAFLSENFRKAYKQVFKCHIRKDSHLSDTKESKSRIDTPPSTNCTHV
In words: β-arrestin recruitment, PathHunter CHO-K1 GALR1 cells. The assay is classed as cell-based. The note with it: for Emax: CHO-K1, 1.5 h, read-out: GalR1 Beta Arrestin IA (%). How it is done: (§2) Ligands were prepared at half log dilutions using cell plating reagent 2. 5 μl of each ligand was added to cells and plates incubated at 37° C. for 90 minutes. DiscoverX PathHunter detection kit (DiscoverX, USA) was added to cells as described my manufacturer's guidelines and plates incubated for 60 minutes at room temperature in the dark. Chemiluminescent signal was measured using the PHERAstar FS (BMG, Germany).
Background: Recruitment of arrestin is a read-out of receptor activation apart from second messengers.

For assay [4], the target named is T2, GalR1. The assay is described as follows: cAMP HTRF assay, CHO GalR1 cells. The note with it: for Emax: read-out: GalR1 cAMP IA (%); for GalR1 activity (cAMP assay), linker variants: Table 7, highest concentration tested 10 μM. Details: expressed in transfected cells; host or cells: CHO (Flp-In, pcDNA5/FRT). In kind it is cell-based. How it is done: The CAMP dynamic 2 kit (Cisbio International) was used as a competitive immunoassay to measure Homogenous Time-Resolved Fluorescence (HTRF). […] Addition of detection reagent involved adding 5 μl d2 conjugated CAMP followed by 5 μl anti-CAMP cryptate conjugate. The two reagents were not pre-mixed; these were both prepared in cell lysis buffer and incubated at room temperature in the dark for one hour.

Assay [5] concerns the target T3, GALR2 (Homo sapiens, UniProt O43603).
T3 sequence (O43603 1-387): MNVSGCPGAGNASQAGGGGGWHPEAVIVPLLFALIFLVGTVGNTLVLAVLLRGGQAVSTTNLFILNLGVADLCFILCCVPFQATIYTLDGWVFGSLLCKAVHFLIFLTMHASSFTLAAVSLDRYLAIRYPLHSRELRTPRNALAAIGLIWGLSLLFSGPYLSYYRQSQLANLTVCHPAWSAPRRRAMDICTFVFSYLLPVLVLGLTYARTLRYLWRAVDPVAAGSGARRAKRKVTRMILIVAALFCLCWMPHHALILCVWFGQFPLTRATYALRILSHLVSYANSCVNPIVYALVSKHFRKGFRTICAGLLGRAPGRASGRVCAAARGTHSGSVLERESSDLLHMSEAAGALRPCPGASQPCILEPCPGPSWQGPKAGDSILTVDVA
The assay is described as follows: Calcium assay, CHO GalR2 cells (FLIPR). Conditions: for GalR2 Calcium, mean pEC50: Table 2, n ≥ 3; for GalR2 Calcium, mean pEC50 / GalR2 activity (calcium assay), linker variants / GalR2 activity (calcium assay), warhead length: mean +/− standard deviation; for GalR2 activity (calcium assay), linker variants: Table 7; for GalR2 activity (calcium assay), linker variants / GalR2 activity (calcium assay), warhead length: highest concentration tested 10 μM; for GalR2 activity (calcium assay), warhead length: Table 6.
Protocol: CHO GalR2 cells were plated at 10,000 cells per well in black clear bottom plates (corning, USA) and incubated overnight at 37° C. with 5% CO2. […] Ligands were prepared at a 5× concentration and added to cells using the FLIPR (Molecular Devices, USA). Baseline was typically 20 seconds before ligand addition. […] For analysis, fluorescence was normalised to pre-addition baseline and peak fluorescence used for all quantification.
In brief, a panel of functional cell-based microtiter-plate assays were developed using recombinant GalR1 and GalR2 receptors stably expressed in CHO cells. […] Nominally this equated to 10 serial (~3fold) dilutions with highest concentrations of 10-1 μM as appropriate.
In addition to generating both potency and efficacy estimates, the latter being expressed relative to native galanin, both G-protein and non-G-Protein signalling pathways were measured.

Assay [6] deals with T3, GALR2. The assay is described as follows: β-arrestin recruitment, PathHunter CHO-K1 GALR2 cells. The assay is classed as cell-based. The note with it: for GalR2 Beta Arrestin, mean pEC50: Table 2, mean +/− standard deviation, n ≥ 3. How it is done: as §2
The mark [7] stands for this setting: Table 3, mean +/− standard deviation, n ≥ 3, highest concentration 1 μM (galnon 100 μM).
[8] abbreviates: maximum response at highest concentration tested (1 μM, except galnon at 100 μM), relative to galanin.

Non-standard residues stand in square brackets, D forms with d. Residues, ends and D or L forms follow the SMILES beside them. No end group written: not given here. *: point of attachment. Fmoc = O=C(OCC1c2ccccc2-c2ccccc21)*; Cha = N[C@@H](CC1CCCCC1)C(=O)O; AMC = Cc1cc(=O)oc2cc(N*)ccc12 Where only a bound is given, the exact number is not on record here.

For orientation: EC50 means the concentration that produces a half-maximal response. Consider `CC(C)C[C@H](NC(=O)CNC(=O)[C@H](CC(N)=O)NC(=O)[C@H](CCCCN)NC(=O)[C@H](CC(=O)O)NC(=O)[C@H](CO)NC(=O)[C@H](Cc1ccccc1)NC(=O)[C@H](CO)NC(=O)[C@H](CCCNC(=N)N)NC(=O)[C@H](Cc1c[nH]cn1)NC(=O)[C@H](CC(N)=O)NC(=O)CNC(=O)[C@@H](NC(=O)[C@H](C)NC(=O)[C@H](Cc1c[nH]cn1)NC(=O)[C@@H]1CCCN1C(=O)CNC(=O)[C@H](CC(C)C)NC(=O)[C@H](CC(C)C)NC(=O)[C@H](Cc1ccc(O)cc1)NC(=O)CNC(=O)[C@H](C)NC(=O)[C@H](CO)NC(=O)[C@H](CC(N)=O)NC(=O)[C@H](CC(C)C)NC(=O)[C@@H](NC(=O)[C@H](Cc1c[nH]c2ccccc12)NC(=O)CN)[C@@H](C)O)C(C)C)C(=O)N[C@H](C(=O)N[C@@H](CO)C(=O)O)[C@@H](C)O` [Galanin 1-30 (human), reference compound], for which the EC50 in assay [1] was 1 nM. Further, the “Cynomolgus GalR2 activity” value in assay [2] is on record as 9.6 +/− 0.2.
For the compound `CC[C@H](C)[C@H](NC(=O)[C@H](C)NC(=O)[C@H](Cc1c[nH]cn1)NC(=O)[C@@H]1CCCN1C(=O)CNC(=O)[C@H](CC(C)C)NC(=O)[C@H](CC(C)C)NC(=O)[C@H](Cc1ccc(O)cc1)NC(=O)CNC(=O)[C@H](C)NC(=O)[C@H](CO)NC(=O)[C@H](CC(N)=O)NC(=O)[C@H](CC(C)C)NC(=O)[C@@H](NC(=O)[C@@H](N)Cc1c[nH]c2ccccc12)[C@@H](C)O)C(=O)N[C@@H](CC(=O)O)C(=O)N[C@@H](CC(N)=O)C(=O)N[C@@H](Cc1c[nH]cn1)C(=O)N[C@@H](CCCNC(=N)N)C(=O)N[C@@H](CO)C(=O)N[C@@H](Cc1ccccc1)C(=O)N[C@@H](Cc1c[nH]cn1)C(=O)N[C@@H](CC(=O)O)C(=O)N[C@@H](CCCCN)C(=O)N[C@@H](Cc1ccc(O)cc1)C(=O)NCC(=O)N[C@@H](CC(C)C)C(=O)N[C@@H](C)C(N)=O` [Galanin 2-29 (rat), reference compound], the values for the Emax in assay [3] and in assay [4] were 67.2% and 90.8%, respectively.
In the case of `Cc1cc(=O)oc2cc(NC(=O)[C@H](CCCCN)NC(=O)[C@H](CC3CCCCC3)NC(=O)OCC3c4ccccc4-c4ccccc43)ccc12` [Galnon, reference compound] (Fmoc-[Cha]-Lys-{AMC}), the EC50 is above 1000 nM in assay [3], 20 µM in assay [5], 158 µM in assay [6] and above 1000 nM in assay [4]. Also, the Emax in assay [3] came out at 40.1%; in assay [4], 2.9%.
As to “GWTLNSAGYLLGPQPPGFSPFR-NH2 (C-terminus assumed) [M617, reference compound]”, the Emax in assay [3] is 99%; in assay [4], 90.1%.
As for “Gal1-30FC: galanin 1-30 fused to human IgG1 FC, mature chimeric protein SEQ ID NO: 23”, in assay [3] (setting [7]), the “GalR1 Beta Arrestin pEC50” value is recorded as 5.72 +/− 0.40. In addition, in assay [3] (setting [8]), the “GalR1 Beta Arrestin IA (%)” value is 88.1 +/− 7.1%. The “GalR2 Calcium, mean pEC50” value in assay [5] is given as 6.4 +/− 0.3. The “GalR2 Beta Arrestin, mean pEC50” value in assay [6] is reported as 5.7 +/− 0.4. Besides, the “GalR1 cAMP pEC50” value in assay [4] (setting [7]) is 8.4 +/− 0.2. The “GalR1 cAMP IA (%)” value in assay [4] (setting [8]) is 93.4 +/− 11.6%.
Consider “Gal2-13FC (ALA-12): Gal2-13FC with alanine at position 12; SEQ ID NO: 61”, for which the “activation of GalR2 in vitro (in words)” value in assay [6] (positions 12 and 13 study, FIG. 2 / Table 4) is listed as “failed to activate GalR2”.
In the case of “Gal2-13FC GGS2: Gal2-13 FC fusion with GGSGGS linker; SEQ ID NO: 34”, in assay [5], the “GalR2 activity (calcium assay), linker variants” value is on record as 6.4 +/− 0.0. The “GalR1 activity (cAMP assay), linker variants” value (shortened to “GalR1 activity (cAMP assay)”) in assay [4] (mean +/− standard deviation) is on record as 5.5 +/− 0.2.
Turning to “Gal2-13FC GGS: Gal2-13 FC fusion with GGS linker; SEQ ID NO: 33”, the “GalR2 activity (calcium assay), linker variants” value in assay [5] is recorded as 6.4 +/− 0.1. Moreover, the “GalR1 activity (cAMP assay)” value in assay [4] (mean +/− standard deviation) is 5.3 +/− 0.1.
The matching figures for “Gal2-13FC NL: Gal2-13 FC fusion with no linker; SEQ ID NO: 36”: 7.3 +/− 0.1 and 5.9 +/− 0.2.
In the case of “Gal2-13FC PA4: Gal2-13 FC fusion with PAPAPAPA linker; SEQ ID NO: 37”, the “GalR2 activity (calcium assay), linker variants” value in assay [5] is recorded as 6.8 +/− 0.1. For the same compound, the “GalR1 activity (cAMP assay)” value in assay [4] (mean +/− standard deviation) is given as 6.1 +/− 0.0.
“Gal2-18FC: galanin 2-18, AEAAAKEAAAKA linker, human IgG1 FC; SEQ ID NO: 26”: in assay [5], the “GalR2 Calcium, mean pEC50” value is listed as 6.7 +/− 0.1 and the “GalR2 activity (calcium assay), warhead length” value is 6.7 +/− 0.1. For the same compound, the “GalR2 Beta Arrestin, mean pEC50” value in assay [6] was 7.3 +/− 0.1.
Regarding “Gal2-24FC: galanin 2-24, AEAAAKEAAAKA linker, human IgG1 FC; SEQ ID NO: 27”, in assay [5], the “GalR2 Calcium, mean pEC50” value is recorded as 6.9 +/− 0.3 and the “GalR2 activity (calcium assay), warhead length” value was 6.9 +/− 0.3. Moreover, the “GalR2 Beta Arrestin, mean pEC50” value in assay [6] is listed as 7.6 +/− 0.0.
For the compound “RGRGNWTLNSAGYLLGPVLPPPALALA-NH2 (C-terminus assumed) [M1145, reference compound]”, the Emax in assay [3] came out at 24.5%; in assay [4], 86.7%.

Source of the values: patent US20260209301A1, “Galanin-2 Receptor Agonists” (LIFEARC, priority 2022, published 2026).
